Experimental data: patent US20100029507

Assays:
[1] = biological target: E. coli malic enzyme-kemptide fusion protein (UniProt P26616)
bovine serum albumin = bovine serum albumin (UniProt P02769)
Sequence of bovine serum albumin (P02769 25-607): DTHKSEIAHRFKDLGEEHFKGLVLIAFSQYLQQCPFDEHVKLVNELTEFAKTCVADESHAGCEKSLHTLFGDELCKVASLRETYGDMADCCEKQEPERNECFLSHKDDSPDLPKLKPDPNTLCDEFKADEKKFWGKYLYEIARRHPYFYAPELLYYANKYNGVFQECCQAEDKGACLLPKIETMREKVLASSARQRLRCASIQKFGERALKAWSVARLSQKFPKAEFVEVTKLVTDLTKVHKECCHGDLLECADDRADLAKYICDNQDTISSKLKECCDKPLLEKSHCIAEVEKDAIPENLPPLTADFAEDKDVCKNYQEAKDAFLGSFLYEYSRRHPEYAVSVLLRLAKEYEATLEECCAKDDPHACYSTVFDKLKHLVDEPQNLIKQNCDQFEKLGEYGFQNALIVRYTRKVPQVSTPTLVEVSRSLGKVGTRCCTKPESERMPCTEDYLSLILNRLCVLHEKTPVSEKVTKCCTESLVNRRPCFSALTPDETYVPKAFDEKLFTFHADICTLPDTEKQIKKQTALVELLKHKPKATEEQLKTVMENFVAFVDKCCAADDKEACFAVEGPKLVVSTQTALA

Sequence of E. coli malic enzyme-kemptide fusion protein (P26616 whole entry, looked up, the tested form may be a part): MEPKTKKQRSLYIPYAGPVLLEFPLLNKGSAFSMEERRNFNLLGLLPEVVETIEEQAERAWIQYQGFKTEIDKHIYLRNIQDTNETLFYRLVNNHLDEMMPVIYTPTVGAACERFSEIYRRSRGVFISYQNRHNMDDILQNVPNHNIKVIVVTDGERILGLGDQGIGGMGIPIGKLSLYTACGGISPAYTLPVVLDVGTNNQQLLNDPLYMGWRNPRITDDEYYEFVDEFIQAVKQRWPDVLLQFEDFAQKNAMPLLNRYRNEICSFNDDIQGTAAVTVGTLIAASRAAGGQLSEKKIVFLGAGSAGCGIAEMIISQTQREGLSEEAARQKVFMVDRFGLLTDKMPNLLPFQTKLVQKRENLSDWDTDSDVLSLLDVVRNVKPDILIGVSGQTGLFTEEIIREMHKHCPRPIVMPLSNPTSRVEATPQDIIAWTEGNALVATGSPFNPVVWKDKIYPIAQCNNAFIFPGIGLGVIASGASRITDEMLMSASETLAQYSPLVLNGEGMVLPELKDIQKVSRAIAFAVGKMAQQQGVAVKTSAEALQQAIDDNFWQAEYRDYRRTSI

cAMP-dependent protein kinase
phosphorylation with [gamma-32P]ATP on the biochip after different blocking solutions or none [1]: clear spots were observed not only when 1% BSA was treated but also when 1% glycine and 10% glycerol were treated | phosphorylation with [gamma-32P]ATP on the biochip, X-ray film [1]: spot signals were clearly confirmed on the malic enzyme-kemptide fusion protein or kemptide spot | phosphorylation with [gamma-32P]ATP on the biochip, X-ray film (bovine serum albumin): no signal was observed on No. 1 BSA spot selected as a negative control | phosphorylation with [gamma-32P]ATP on the biochip after different blocking solutions or none (kemptide): clear spots were observed not only when 1% BSA was treated but also when 1% glycine and 10% glycerol were treated | phosphorylation with [gamma-32P]ATP on the biochip, X-ray film (kemptide): spot signals were clearly confirmed on the malic enzyme-kemptide fusion protein or kemptide spot | phosphorylation with [gamma-32P]ATP on the biochip, X-ray film against image plate (IP) (kemptide): signals were clearly detected on IP film even with short sensitization time
